Measured values published in patent US20200129634A1.
Non-standard residues stand in square brackets, D forms with d. No end group written: not given here.

Experiments:
[1] = target: D85 (D84K3OrnK7OrnK11OrnK18OrnK22OrnK26Orn); assay: RP-HPLC temperature profiling (0.25% B/min gradient), Mix 1, self-association relative to RC
[2] = target: D39; assay: RP-HPLC temperature profiling 5-77 C, pH 2, self-association (dimerization/oligomerization) relative to random coil control RC
[3] = target: human serum proteins; assay: cell-based or functional assay
[4] = target: D40; assay: RP-HPLC temperature profiling 5-77 C, pH 2, self-association (dimerization/oligomerization) relative to random coil control RC
[5] = target: D38; assay: as above
[6] = target: D33 (D37(A13K/A16K)); assay: as above
[7] = target: D37; assay: as above
[8] = target: D37; assay: RP-HPLC temperature profiling (0.25% B/min gradient), control AMP, self-association relative to RC
[9] = target: D106 (D88K3DprK7DprK14DprK15DprK22DprK26Dpr); assay: RP-HPLC temperature profiling (0.25% B/min gradient), Mix 4, self-association relative to RC
[10] = target: D87 (D84K3ArgK7ArgK11ArgK18ArgK22ArgK26Arg); assay: RP-HPLC temperature profiling (0.25% B/min gradient), Mix 1, self-association relative to RC
[11] = target: D105 (D84K3DprK7DprK11DprK18DprK22DprK26Dpr); assay: as above
[12] = target: D105 (D84K3DprK7DprK11DprK18DprK22DprK26Dpr); assay: RP-HPLC temperature profiling (0.25% B/min gradient), Mix 4, self-association relative to RC
[13] = target: D88 (D34(A1K)); assay: RP-HPLC temperature profiling (0.25% B/min gradient), Mix 2, self-association relative to RC
[14] = target: D101 (D33(A1K)K26S); assay: as above
[15] = target: D103 (D34(A1K)K26S); assay: as above

B1: D85 (D84K3OrnK7OrnK11OrnK18OrnK22OrnK26Orn) (peptide)
peptide: Ac-KLXSLLXTLSXAKAAKLXTLLXALSX-NH2
modifications: not fully specified (some residues); printed as Ac-KL(Orn)SLL(Orn)TLS(Orn)AKAAKL(Orn)TLL(Orn)ALS(Orn)-amide
PA (self-association parameter) [1]: 2.9 min

B2: D39 (peptide)
peptide: [dA][dL][dK][dS][dL][dL][dA][dT][dL][dS][dK][dA][dA][dK][dK][dA][dL][dK][dT][dL][dL][dA][dA][dL][dS][dK]-NH2
modifications: N-terminus assumed
SMILES: CC(C)C[C@@H](NC(=O)[C@@H](C)N)C(=O)N[C@H](CCCCN)C(=O)N[C@H](CO)C(=O)N[C@H](CC(C)C)C(=O)N[C@H](CC(C)C)C(=O)N[C@H](C)C(=O)N[C@@H](C(=O)N[C@H](CC(C)C)C(=O)N[C@H](CO)C(=O)N[C@H](CCCCN)C(=O)N[C@H](C)C(=O)N[C@H](C)C(=O)N[C@H](CCCCN)C(=O)N[C@H](CCCCN)C(=O)N[C@H](C)C(=O)N[C@H](CC(C)C)C(=O)N[C@H](CCCCN)C(=O)N[C@@H](C(=O)N[C@H](CC(C)C)C(=O)N[C@H](CC(C)C)C(=O)N[C@H](C)C(=O)N[C@H](C)C(=O)N[C@H](CC(C)C)C(=O)N[C@H](CO)C(=O)N[C@H](CCCCN)C(N)=O)[C@H](C)O)[C@H](C)O
PA (self-association parameter) [2]: 18.5 min
MIC against A. baumannii strain 649 in 25% human serum (no serum: 1.4) [3]: > 92.8 µM

B3: D40 (peptide)
peptide: [dA][dL][dA][dS][dL][dL][dK][dT][dL][dS][dK][dA][dA][dK][dK][dA][dL][dK][dT][dL][dL][dK][dA][dL][dS][dA]-NH2
modifications: N-terminus assumed
SMILES: CC(C)C[C@@H](NC(=O)[C@@H](C)N)C(=O)N[C@H](C)C(=O)N[C@H](CO)C(=O)N[C@H](CC(C)C)C(=O)N[C@H](CC(C)C)C(=O)N[C@H](CCCCN)C(=O)N[C@@H](C(=O)N[C@H](CC(C)C)C(=O)N[C@H](CO)C(=O)N[C@H](CCCCN)C(=O)N[C@H](C)C(=O)N[C@H](C)C(=O)N[C@H](CCCCN)C(=O)N[C@H](CCCCN)C(=O)N[C@H](C)C(=O)N[C@H](CC(C)C)C(=O)N[C@H](CCCCN)C(=O)N[C@@H](C(=O)N[C@H](CC(C)C)C(=O)N[C@H](CC(C)C)C(=O)N[C@H](CCCCN)C(=O)N[C@H](C)C(=O)N[C@H](CC(C)C)C(=O)N[C@H](CO)C(=O)N[C@H](C)C(N)=O)[C@H](C)O)[C@H](C)O
PA (self-association parameter) [4]: 18.7 min
MIC against A. baumannii strain 649 in 25% human serum (no serum: 2.9) [3]: > 92.8 µM

B4: D38 (peptide)
peptide: [dA][dL][dK][dS][dL][dL][dK][dT][dL][dS][dA][dA][dA][dK][dK][dA][dL][dA][dT][dL][dL][dK][dA][dL][dS][dK]-NH2
modifications: N-terminus assumed
SMILES: CC(C)C[C@@H](NC(=O)[C@@H](C)N)C(=O)N[C@H](CCCCN)C(=O)N[C@H](CO)C(=O)N[C@H](CC(C)C)C(=O)N[C@H](CC(C)C)C(=O)N[C@H](CCCCN)C(=O)N[C@@H](C(=O)N[C@H](CC(C)C)C(=O)N[C@H](CO)C(=O)N[C@H](C)C(=O)N[C@H](C)C(=O)N[C@H](C)C(=O)N[C@H](CCCCN)C(=O)N[C@H](CCCCN)C(=O)N[C@H](C)C(=O)N[C@H](CC(C)C)C(=O)N[C@H](C)C(=O)N[C@@H](C(=O)N[C@H](CC(C)C)C(=O)N[C@H](CC(C)C)C(=O)N[C@H](CCCCN)C(=O)N[C@H](C)C(=O)N[C@H](CC(C)C)C(=O)N[C@H](CO)C(=O)N[C@H](CCCCN)C(N)=O)[C@H](C)O)[C@H](C)O
PA (self-association parameter) [5]: 19.5 min
MIC against A. baumannii strain 649 in 25% human serum (no serum: 0.7) [3]: > 92.8 µM

B5: D33 (D37(A13K/A16K)) (peptide)
peptide: [dA][dL][dK][dS][dL][dL][dK][dT][dL][dS][dK][dA][dK][dA][dA][dK][dL][dK][dT][dL][dL][dK][dA][dL][dS][dK]-NH2
modifications: N-terminus assumed
SMILES: CC(C)C[C@@H](NC(=O)[C@@H](C)N)C(=O)N[C@H](CCCCN)C(=O)N[C@H](CO)C(=O)N[C@H](CC(C)C)C(=O)N[C@H](CC(C)C)C(=O)N[C@H](CCCCN)C(=O)N[C@@H](C(=O)N[C@H](CC(C)C)C(=O)N[C@H](CO)C(=O)N[C@H](CCCCN)C(=O)N[C@H](C)C(=O)N[C@H](CCCCN)C(=O)N[C@H](C)C(=O)N[C@H](C)C(=O)N[C@H](CCCCN)C(=O)N[C@H](CC(C)C)C(=O)N[C@H](CCCCN)C(=O)N[C@@H](C(=O)N[C@H](CC(C)C)C(=O)N[C@H](CC(C)C)C(=O)N[C@H](CCCCN)C(=O)N[C@H](C)C(=O)N[C@H](CC(C)C)C(=O)N[C@H](CO)C(=O)N[C@H](CCCCN)C(N)=O)[C@H](C)O)[C@H](C)O
PA (self-association parameter) [6]: 5.3 min
MIC against A. baumannii strain 649 in 25% human serum (no serum: 0.1) [3]: 0.7 µM

B6: D37 (peptide)
peptide: [dA][dL][dK][dS][dL][dL][dK][dT][dL][dS][dK][dA][dA][dA][dA][dA][dL][dK][dT][dL][dL][dK][dA][dL][dS][dK]-NH2
modifications: N-terminus assumed
SMILES: CC(C)C[C@@H](NC(=O)[C@@H](C)N)C(=O)N[C@H](CCCCN)C(=O)N[C@H](CO)C(=O)N[C@H](CC(C)C)C(=O)N[C@H](CC(C)C)C(=O)N[C@H](CCCCN)C(=O)N[C@@H](C(=O)N[C@H](CC(C)C)C(=O)N[C@H](CO)C(=O)N[C@H](CCCCN)C(=O)N[C@H](C)C(=O)N[C@H](C)C(=O)N[C@H](C)C(=O)N[C@H](C)C(=O)N[C@H](C)C(=O)N[C@H](CC(C)C)C(=O)N[C@H](CCCCN)C(=O)N[C@@H](C(=O)N[C@H](CC(C)C)C(=O)N[C@H](CC(C)C)C(=O)N[C@H](CCCCN)C(=O)N[C@H](C)C(=O)N[C@H](CC(C)C)C(=O)N[C@H](CO)C(=O)N[C@H](CCCCN)C(N)=O)[C@H](C)O)[C@H](C)O
PA (self-association parameter) [7]: 18.5 min
MIC against A. baumannii strain 649 in 25% human serum (no serum: 2.9) [3]: > 92.8 µM
PA (self-association parameter) [8]: 37 min

B7: D106 (D88K3DprK7DprK14DprK15DprK22DprK26Dpr) (peptide)
peptide: Ac-KLXSLLXTLSAAKXXKLATLLXALSX-NH2
modifications: not fully specified (some residues); printed as Ac-KL(Dpr)SLL(Dpr)TLSAAK(Dpr)(Dpr)KLATLL(Dpr)ALs(Dpr)-amide
PA (self-association parameter) [9]: 2.5 min

B8: D87 (D84K3ArgK7ArgK11ArgK18ArgK22ArgK26Arg) (peptide)
peptide: Ac-KLRSLLRTLSRAKAAKLRTLLRALSR-NH2
modifications: not fully specified; printed as Ac-KL(Arg)SLL(Arg)TLS(Arg)AKAAKL(Arg)TLL(Arg)ALs(Arg)-amide; also: D-enantiomeric residues, extent not given here
PA (self-association parameter) [10]: 3.4 min

B9: D105 (D84K3DprK7DprK11DprK18DprK22DprK26Dpr) (peptide)
peptide: Ac-KLXSLLXTLSXAKAAKLXTLLXALSX-NH2
modifications: not fully specified (some residues); printed as Ac-KL(Dpr)SLL(Dpr)TLS(Dpr)AKAAKL(Dpr)TLL(Dpr)ALS(Dpr)-amide
PA (self-association parameter) [11]: 2.8 min
PA (self-association parameter) [12]: 2.8 min

B10: D88 (D34(A1K)) (peptide)
peptide: Ac-KLKSLLKTLSAAKKKKLATLLKALSK-NH2
modifications: not fully specified; printed as Ac-KL(Lys)SLL(Lys)TLSAAK(Lys)(Lys)KLATLL(Lys)ALS(Lys)-amide; also: D-enantiomeric residues, extent not given here
PA (self-association parameter) [13]: 6.9 min

B11: D101 (D33(A1K)K26S) (peptide)
peptide: Ac-KLKSLLKTLSKAKAAKLKTLLKALSS-NH2
modifications: not fully specified; also: D-enantiomeric residues, extent not given here
PA (self-association parameter) [14]: 7.2 min

B12: D103 (D34(A1K)K26S) (peptide)
peptide: Ac-KLKSLLKTLSAAKKKKLATLLKALSS-NH2
modifications: not fully specified; also: D-enantiomeric residues, extent not given here
PA (self-association parameter) [15]: 7.2 min
